Results reported in patent US11965039B2, “Compstatin analogues and their medical uses” (priority 2018, dated 2024).
Starred links: 1 amine or outer side, 2 acyl side, 3 side chain; linkers in the order of their positions; H or OH if unused. Positions of bridges follow the written chain, without caps; N, C: chain ends. Non-standard residues stand in square brackets, D forms with d. Groups on a side chain read outwards from the residue. No end group written: not given here. *: point of attachment. X1 = K(γGlu-G-γGlu-17-carboxy-heptadecanoyl), O=C(O)CCCCCCCCCCCCCCCCC(=O)N[C@@H](CCC(=O)NCC(=O)N[C@@H](CCC(=O)NCCCC[C@H](N[*:1])C(=O)[*:2])C(=O)O)C(=O)O; Trp(1-Me) = Cn1cc(C[C@H](N)C(=O)O)c2ccccc21; C18 diacid = O=C(O)CCCCCCCCCCCCCCCCC(=O)*; γGlu = O=C(O)[C@H](CCC(=O)[*:2])N[*:1]; AEEA = NCCOCCOCC(=O)O; Sar = CNCC(=O)O

Columns and labels:
[1] = target: T1, Human C3 (Complement tech cat #A113c) (human, UniProt P01024 23-1663); test: cell-based or functional assay
T1 sequence (P01024 23-1663 limits assumed): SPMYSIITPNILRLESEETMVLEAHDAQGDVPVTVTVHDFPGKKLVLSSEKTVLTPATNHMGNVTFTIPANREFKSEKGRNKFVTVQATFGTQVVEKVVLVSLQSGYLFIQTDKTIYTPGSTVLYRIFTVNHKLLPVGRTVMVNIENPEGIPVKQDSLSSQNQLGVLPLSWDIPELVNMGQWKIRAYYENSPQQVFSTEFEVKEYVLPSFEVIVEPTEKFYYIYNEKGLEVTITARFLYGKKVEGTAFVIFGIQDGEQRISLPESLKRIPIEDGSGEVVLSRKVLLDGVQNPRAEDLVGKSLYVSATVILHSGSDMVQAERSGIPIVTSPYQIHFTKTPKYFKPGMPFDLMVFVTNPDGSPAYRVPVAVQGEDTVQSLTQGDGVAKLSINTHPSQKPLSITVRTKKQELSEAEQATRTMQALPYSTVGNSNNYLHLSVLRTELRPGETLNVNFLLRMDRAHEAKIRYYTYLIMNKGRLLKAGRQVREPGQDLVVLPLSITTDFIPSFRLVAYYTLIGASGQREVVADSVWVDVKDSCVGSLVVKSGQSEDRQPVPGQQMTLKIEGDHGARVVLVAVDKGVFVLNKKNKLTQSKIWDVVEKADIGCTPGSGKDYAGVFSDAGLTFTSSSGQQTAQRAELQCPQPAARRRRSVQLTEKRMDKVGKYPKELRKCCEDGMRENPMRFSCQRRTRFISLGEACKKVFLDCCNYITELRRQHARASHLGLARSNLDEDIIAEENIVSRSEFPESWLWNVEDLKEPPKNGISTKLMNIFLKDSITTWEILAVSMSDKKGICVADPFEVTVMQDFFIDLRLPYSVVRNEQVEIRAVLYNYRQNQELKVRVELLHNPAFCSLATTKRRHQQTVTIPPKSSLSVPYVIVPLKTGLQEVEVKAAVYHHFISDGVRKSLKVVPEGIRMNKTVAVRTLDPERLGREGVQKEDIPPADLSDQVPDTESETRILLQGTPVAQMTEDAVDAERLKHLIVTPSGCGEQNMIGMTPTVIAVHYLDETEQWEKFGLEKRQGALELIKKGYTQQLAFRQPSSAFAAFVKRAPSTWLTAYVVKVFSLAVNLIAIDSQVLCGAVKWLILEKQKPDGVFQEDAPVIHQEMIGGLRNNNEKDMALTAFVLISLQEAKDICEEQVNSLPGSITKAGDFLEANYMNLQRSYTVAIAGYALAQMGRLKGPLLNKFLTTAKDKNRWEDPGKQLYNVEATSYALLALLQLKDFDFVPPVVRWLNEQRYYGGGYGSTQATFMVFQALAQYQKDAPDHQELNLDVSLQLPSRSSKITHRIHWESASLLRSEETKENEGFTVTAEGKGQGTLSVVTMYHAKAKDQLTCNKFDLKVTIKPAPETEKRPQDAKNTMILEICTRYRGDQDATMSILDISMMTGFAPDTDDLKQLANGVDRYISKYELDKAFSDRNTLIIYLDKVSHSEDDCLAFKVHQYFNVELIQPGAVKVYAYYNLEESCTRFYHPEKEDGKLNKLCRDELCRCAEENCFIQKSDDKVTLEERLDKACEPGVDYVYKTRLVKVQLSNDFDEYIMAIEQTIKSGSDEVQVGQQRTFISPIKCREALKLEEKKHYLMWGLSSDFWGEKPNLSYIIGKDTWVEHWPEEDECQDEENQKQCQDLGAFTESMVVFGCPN

[2] = target: T1, Human C3 (Complement tech cat #A113c); test: SPR (Biacore T200), human C3 immobilised, peptide injected, 1:1 fit
Experimental: Surface plasmon resonance (SPR) was used to characterize peptides with respect to their binding affinity (Kd) for C3. Human C3 (Complement tech cat #A113c) was immobilised on individual flow cells of CM5 sensor chips (GE Healthcare) using standard amine coupling to a density of approximately 3000 resonance units (RU) in a buffer consisting of 10 mM phosphate pH 7.4, 150 mM NaCl, 0.05% Tween20.
For interaction experiments a multi-cycle experiment approach was used and performed using a BiacoreT200™ instrument (GE Healthcare) at 25° C. Peptides were injected in increasing concentration series (6-8 different concentrations) for 60-120 sat a flow rate of 30 µL/min in a buffer consisting of 10 mM Tris buffer at pH 7.4, with 150 mM NaCl and 0.05% Tween20. This was followed by a dissociation period for up to 10 min. The C3 surface was regenerated between runs by a 45 s injection of 3 M MgCl_2.

Binder | inhibition of hemolysis IC50 [1] | Kd [2]
Ac-SEFCI[Trp(1-Me)]QDWGEHRC[Sar]EGESESK([γGlu-Gly-γGlu-C18 diacid])-NH2 (disulfide 4-14; SMILES CC[C@H](C)[C@@H]1NC(=O)[C@@H](NC(=O)[C@H](Cc2ccccc2)NC(=O)[C@H](CCC(=O)O)NC(=O)[C@H](CO)NC(C)=O)CSSC[C@@H](C(=O)N(C)CC(=O)N[C@@H](CCC(=O)O)C(=O)NCC(=O)N[C@@H](CCC(=O)O)C(=O)N[C@@H](CO)C(=O)N[C@@H](CCC(=O)O)C(=O)N[C@@H](CO)C(=O)N[C@@H](CCCCNC(=O)CC[C@H](NC(=O)CNC(=O)CC[C@H](NC(=O)CCCCCCCCCCCCCCCCC(=O)O)C(=O)O)C(=O)O)C(N)=O)NC(=O)[C@H](CCCNC(=N)N)NC(=O)[C@H](Cc2c[nH]cn2)NC(=O)[C@H](CCC(=O)O)NC(=O)CNC(=O)[C@H](Cc2c[nH]c3ccccc23)NC(=O)[C@H](CC(=O)O)NC(=O)[C@H](CCC(N)=O)NC(=O)[C@H](Cc2cn(C)c3ccccc23)NC1=O) [Compound 139] | < 100 nM | 7.4 nM
Ac-SEFCI[Trp(1-Me)]QDWGEHRC[Sar]EGESESK([γGlu-C18 diacid])-NH2 (disulfide 4-14; SMILES CC[C@H](C)[C@@H]1NC(=O)[C@@H](NC(=O)[C@H](Cc2ccccc2)NC(=O)[C@H](CCC(=O)O)NC(=O)[C@H](CO)NC(C)=O)CSSC[C@@H](C(=O)N(C)CC(=O)N[C@@H](CCC(=O)O)C(=O)NCC(=O)N[C@@H](CCC(=O)O)C(=O)N[C@@H](CO)C(=O)N[C@@H](CCC(=O)O)C(=O)N[C@@H](CO)C(=O)N[C@@H](CCCCNC(=O)CC[C@H](NC(=O)CCCCCCCCCCCCCCCCC(=O)O)C(=O)O)C(N)=O)NC(=O)[C@H](CCCNC(=N)N)NC(=O)[C@H](Cc2c[nH]cn2)NC(=O)[C@H](CCC(=O)O)NC(=O)CNC(=O)[C@H](Cc2c[nH]c3ccccc23)NC(=O)[C@H](CC(=O)O)NC(=O)[C@H](CCC(N)=O)NC(=O)[C@H](Cc2cn(C)c3ccccc23)NC1=O) [Compound 141] | < 100 nM | 6.6 nM
Ac-FCIWQDWGEHRCTGAE-NH2 (disulfide 2-12; SMILES CC[C@H](C)[C@@H]1NC(=O)[C@@H](NC(=O)[C@H](Cc2ccccc2)NC(C)=O)CSSC[C@@H](C(=O)N[C@H](C(=O)NCC(=O)N[C@@H](C)C(=O)N[C@@H](CCC(=O)O)C(N)=O)[C@@H](C)O)NC(=O)[C@H](CCCNC(=N)N)NC(=O)[C@H](Cc2c[nH]cn2)NC(=O)[C@H](CCC(=O)O)NC(=O)CNC(=O)[C@H](Cc2c[nH]c3ccccc23)NC(=O)[C@H](CC(=O)O)NC(=O)[C@H](CCC(N)=O)NC(=O)[C@H](Cc2c[nH]c3ccccc23)NC1=O) [Compound 43] | < 100 nM | 3.3 nM
Ac-SEFCI[Trp(1-Me)]QDWGEHRC[Sar]EGE-{AEEA-AEEA-K(γGlu-Gly-γGlu-19-carboxy-nonadecanoyl)-NH2} (disulfide 4-14, also called comp 128) [Compound 128] | < 100 nM | 6.5 nM
Ac-SEFCI[Trp(1-Me)]QDWGEHRCTEGE (disulfide 4-14; not fully specified (C-terminus); printed as Ac-SEFC(1)I[1-Me-Trp]QDWGEHRC(1)TEGE[Peg3]ES-K([17-carboxy-heptadecanoyl][γGlu])-NH2) [Compound 142] | < 100 nM | 4.8 nM
Ac-FCIWQDWGEHRCT-NH2 (disulfide 2-12; SMILES CC[C@H](C)[C@@H]1NC(=O)[C@@H](NC(=O)[C@H](Cc2ccccc2)NC(C)=O)CSSC[C@@H](C(=O)N[C@H](C(N)=O)[C@@H](C)O)NC(=O)[C@H](CCCNC(=N)N)NC(=O)[C@H](Cc2c[nH]cn2)NC(=O)[C@H](CCC(=O)O)NC(=O)CNC(=O)[C@H](Cc2c[nH]c3ccccc23)NC(=O)[C@H](CC(=O)O)NC(=O)[C@H](CCC(N)=O)NC(=O)[C@H](Cc2c[nH]c3ccccc23)NC1=O) [Compound 23] | < 100 nM | 2.8 nM
Ac-SEFCI[Trp(1-Me)]QDWGEHRC[Sar]EGE-{AEEA-AEEA-K(γGlu-Gly-γGlu-15-carboxy-pentadecanoyl)-NH2} (disulfide 4-14) [Compound 127] | < 100 nM | 8.5 nM
Ac-SEFCI[Trp(1-Me)]QDWGEHRC[Sar]EGE[AEEA]ES-{X1-NH2} (disulfide 4-14; SMILES CC[C@H](C)[C@@H]1NC(=O)[C@@H](NC(=O)[C@H](Cc2ccccc2)NC(=O)[C@H](CCC(=O)O)NC(=O)[C@H](CO)NC(C)=O)CSSC[C@@H](C(=O)N(C)CC(=O)N[C@@H](CCC(=O)O)C(=O)NCC(=O)N[C@@H](CCC(=O)O)C(=O)NCCOCCOCC(=O)N[C@@H](CCC(=O)O)C(=O)N[C@@H](CO)C(=O)N[C@@H](CCCCNC(=O)CC[C@H](NC(=O)CNC(=O)CC[C@H](NC(=O)CCCCCCCCCCCCCCCCC(=O)O)C(=O)O)C(=O)O)C(N)=O)NC(=O)[C@H](CCCNC(=N)N)NC(=O)[C@H](Cc2c[nH]cn2)NC(=O)[C@H](CCC(=O)O)NC(=O)CNC(=O)[C@H](Cc2c[nH]c3ccccc23)NC(=O)[C@H](CC(=O)O)NC(=O)[C@H](CCC(N)=O)NC(=O)[C@H](Cc2cn(C)c3ccccc23)NC1=O) [Compound 140] | < 100 nM | 7.6 nM
Ac-SEFCI[Trp(1-Me)]QDWGEHRCTEGE-{AEEA-AEEA-X1-NH2} (disulfide 4-14; SMILES CC[C@H](C)[C@@H]1NC(=O)[C@@H](NC(=O)[C@H](Cc2ccccc2)NC(=O)[C@H](CCC(=O)O)NC(=O)[C@H](CO)NC(C)=O)CSSC[C@@H](C(=O)N[C@H](C(=O)N[C@@H](CCC(=O)O)C(=O)NCC(=O)N[C@@H](CCC(=O)O)C(=O)NCCOCCOCC(=O)NCCOCCOCC(=O)N[C@@H](CCCCNC(=O)CC[C@H](NC(=O)CNC(=O)CC[C@H](NC(=O)CCCCCCCCCCCCCCCCC(=O)O)C(=O)O)C(=O)O)C(N)=O)[C@@H](C)O)NC(=O)[C@H](CCCNC(=N)N)NC(=O)[C@H](Cc2c[nH]cn2)NC(=O)[C@H](CCC(=O)O)NC(=O)CNC(=O)[C@H](Cc2c[nH]c3ccccc23)NC(=O)[C@H](CC(=O)O)NC(=O)[C@H](CCC(N)=O)NC(=O)[C@H](Cc2cn(C)c3ccccc23)NC1=O) [Compound 126] | < 100 nM | 5.2 nM
Ac-SEFCI[Trp(1-Me)]QDWGEHRCTEGEGGGK([γGlu-Gly-γGlu-C18 diacid])-NH2 (disulfide 4-14; SMILES CC[C@H](C)[C@@H]1NC(=O)[C@@H](NC(=O)[C@H](Cc2ccccc2)NC(=O)[C@H](CCC(=O)O)NC(=O)[C@H](CO)NC(C)=O)CSSC[C@@H](C(=O)N[C@H](C(=O)N[C@@H](CCC(=O)O)C(=O)NCC(=O)N[C@@H](CCC(=O)O)C(=O)NCC(=O)NCC(=O)NCC(=O)N[C@@H](CCCCNC(=O)CC[C@H](NC(=O)CNC(=O)CC[C@H](NC(=O)CCCCCCCCCCCCCCCCC(=O)O)C(=O)O)C(=O)O)C(N)=O)[C@@H](C)O)NC(=O)[C@H](CCCNC(=N)N)NC(=O)[C@H](Cc2c[nH]cn2)NC(=O)[C@H](CCC(=O)O)NC(=O)CNC(=O)[C@H](Cc2c[nH]c3ccccc23)NC(=O)[C@H](CC(=O)O)NC(=O)[C@H](CCC(N)=O)NC(=O)[C@H](Cc2cn(C)c3ccccc23)NC1=O) [Compound 130] | < 100 nM | 4.4 nM
Ac-FCI[Trp(1-Me)]QDWGEHRCTGAES-NH2 (disulfide 2-12; SMILES CC[C@H](C)[C@@H]1NC(=O)[C@@H](NC(=O)[C@H](Cc2ccccc2)NC(C)=O)CSSC[C@@H](C(=O)N[C@H](C(=O)NCC(=O)N[C@@H](C)C(=O)N[C@@H](CCC(=O)O)C(=O)N[C@@H](CO)C(N)=O)[C@@H](C)O)NC(=O)[C@H](CCCNC(=N)N)NC(=O)[C@H](Cc2c[nH]cn2)NC(=O)[C@H](CCC(=O)O)NC(=O)CNC(=O)[C@H](Cc2c[nH]c3ccccc23)NC(=O)[C@H](CC(=O)O)NC(=O)[C@H](CCC(N)=O)NC(=O)[C@H](Cc2cn(C)c3ccccc23)NC1=O) [Compound 61] | < 100 nM | 0.33 nM
Ac-EGSAICIWQDWGEHRCT-NH2 (disulfide 6-16; SMILES CC[C@H](C)[C@H](NC(=O)[C@H](C)NC(=O)[C@H](CO)NC(=O)CNC(=O)[C@H](CCC(=O)O)NC(C)=O)C(=O)N[C@H]1CSSC[C@@H](C(=O)N[C@H](C(N)=O)[C@@H](C)O)NC(=O)[C@H](CCCNC(=N)N)NC(=O)[C@H](Cc2c[nH]cn2)NC(=O)[C@H](CCC(=O)O)NC(=O)CNC(=O)[C@H](Cc2c[nH]c3ccccc23)NC(=O)[C@H](CC(=O)O)NC(=O)[C@H](CCC(N)=O)NC(=O)[C@H](Cc2c[nH]c3ccccc23)NC(=O)[C@H]([C@@H](C)CC)NC1=O) [Compound 29] | < 100 nM | 21 nM
